According to publication PMC10881741, “Structural modifications toward improved lead-203/lead-212 peptide-based image-guided alpha-particle radiopharmaceutical therapies for neuroendocrine tumors” (European Journal of Nuclear Medicine and Molecular Imaging, 2023):
Where two headings read alike, the source gives them in different places.

Key:
AR42J cells = test: Cellular uptake of ^203Pb-labeled peptides; assay type: cell-based, rat; settings: 2 h post-incubation
Protocol: PSCTOC and PSC-PEG2-TOC were labeled with ^203Pb and purified via HPLC for high molar activities as descibed in the Supplementary Material and in Li and collaborators. The HPLC-purified ^203Pb-labeled peptides (3.4 kBq) were incubated with AR42J cells in 24-well plates (pre-coated with poly-D-lysine), which were plated at a density of 2.0 × 10^5 cells 2 days prior, in the binding medium at 37 °C for up to 120 min. The cells were then washed twice and lysed, and the radioactivities of the samples were determined (n=3).

[1] = In vivo biodistribution of ^203Pb-labeled peptides; set-up: species or system mice; settings: female, athymic nu/nu, mouse, 37 kBq, total radioactivity; for tissue uptake at 1 h / tissue uptake at 3 h / tissue uptake at 24 h: intravenous; for tissue uptake at 1 h / tissue to tissue ratio at 1 h: 1 h post-administration; for tissue uptake at 3 h / tissue to tissue ratio at 3 h: 3 h post-administration; for tissue uptake at 24 h / tissue to tissue ratio at 24 h: 24 h post-administration; for tissue to tissue ratio at 1 h / tissue to tissue ratio at 3 h / tissue to tissue ratio at 24 h: iv
Protocol: AR42J cells (5.0 × 10^6 cells/animal) were implanted subcutaneously on the left shoulder of female athymic nu/nu mice. […] Extra groups of mice were co-administered 37 kBq of ^203Pb-PSC-PEG2-TOC with DL-lysine (400 mg/kg) to determine the effect of amino acid on renal uptake of the radiopharmaceutical. Mice (n=3 per time point) were euthanized at 1, 3, and 24 h post-administration, and tumors and organs/tissues of interest were excised and weighed. The radioactivities of the samples were measured using the gamma counter.

[2] = large intestine, read-out: Large intestine
[3] = small intestine, read-out: Small intestine
[4] = tumor/blood, read-out: Tumor/blood ratio
[5] = tumor/kidneys, read-out: Tumor/kidneys ratio
[6] = tumor/liver, read-out: Tumor/liver ratio
[7] = tumor/lung, read-out: Tumor/lung ratio
[8] = tumor/muscle, read-out: Tumor/muscle ratio

Question: With C[C@@H](O)[C@@H]1NC(=O)[C@H](CCCCN)NC(=O)[C@@H](Cc2c[nH]c3ccccc23)NC(=O)[C@H](Cc2ccc(O)cc2)NC(=O)[C@@H](NC(=O)[C@@H](Cc2ccccc2)NC(=O)CN2CCN(CC(=O)O)CCN(CC(N)=O)CCN(CC(=O)O)CC2)CSSC[C@@H](C(=O)N[C@H](CO)[C@@H](C)O)NC1=O [[^203Pb]Pb-PSCTOC, metal not drawn] as the compound, how does the “Cellular uptake, fold vs. [^203Pb]Pb-DOTATOC” value (AR42J cells) read?
Answer: 6 fold

Question: What about the Cellular uptake (AR42J cells; 37 °C) of the same compound?
Answer: 5%

Question: What about the tissue uptake at 1 h ([1]; blood, read-out: Blood) of the same compound?
Answer: 0.53 ± 0.06 %ID/g

Question: And the tissue uptake at 3 h ([1]; blood, read-out: Blood)?
Answer: 0.03 ± 0.01 %ID/g

Question: What about the tissue uptake at 24 h ([1]; blood, read-out: Blood) of the same compound?
Answer: 0.01 %ID/g

Question: And the tissue uptake at 1 h ([1]; brain, read-out: Brain)?
Answer: 0.16 ± 0.16 %ID/g

Question: What about the tissue uptake at 3 h ([1]; brain, read-out: Brain) of the same compound?
Answer: 0.01 %ID/g

Question: And the tissue uptake at 24 h ([1]; brain, read-out: Brain)?
Answer: 0.02 %ID/g

Question: And the tissue uptake at 1 h ([1]; heart, read-out: Heart)?
Answer: 0.32 ± 0.02 %ID/g

Question: And the tissue uptake at 3 h ([1]; heart, read-out: Heart)?
Answer: 0.07 %ID/g

Question: What about the tissue uptake at 24 h ([1]; heart, read-out: Heart) of the same compound?
Answer: 0.05 ± 0.01 %ID/g

Question: And the tissue uptake at 1 h ([1]; kidneys, read-out: Kidneys)?
Answer: 13.6 ± 0.75 %ID/g

Question: And the tissue uptake at 3 h ([1]; kidneys, read-out: Kidneys)?
Answer: 8.35 ± 1.33 %ID/g

Question: What about the tissue uptake at 24 h ([1]; kidneys, read-out: Kidneys) of the same compound?
Answer: 5.59 ± 1.3 %ID/g

Question: And the tissue uptake at 1 h [1, 2]?
Answer: 0.77 ± 0.04 %ID/g

Question: And the tissue uptake at 3 h [1, 2]?
Answer: 3.1 ± 0.12 %ID/g

Question: And the tissue uptake at 24 h [1, 2]?
Answer: 0.45 ± 0.03 %ID/g

Question: And the tissue uptake at 1 h ([1]; liver, read-out: Liver)?
Answer: 0.44 ± 0.02 %ID/g

Question: And the tissue uptake at 3 h ([1]; liver, read-out: Liver)?
Answer: 0.19 ± 0.03 %ID/g

Question: What about the tissue uptake at 24 h ([1]; liver, read-out: Liver) of the same compound?
Answer: 0.14 %ID/g

Question: What about the tissue uptake at 1 h ([1]; lung, read-out: Lung) of the same compound?
Answer: 5.06 ± 0.74 %ID/g

Question: What about the tissue uptake at 3 h ([1]; lung, read-out: Lung) of the same compound?
Answer: 1.09 ± 0.36 %ID/g

Question: And the tissue uptake at 24 h ([1]; lung, read-out: Lung)?
Answer: 1.39 ± 0.27 %ID/g

Question: What about the tissue uptake at 1 h ([1]; muscle, read-out: Muscle) of the same compound?
Answer: 0.25 ± 0.06 %ID/g

Question: What about the tissue uptake at 3 h ([1]; muscle, read-out: Muscle) of the same compound?
Answer: 0.05 ± 0.03 %ID/g

Question: What about the tissue uptake at 24 h ([1]; muscle, read-out: Muscle) of the same compound?
Answer: 0.03 ± 0.01 %ID/g

Question: And the tissue uptake at 1 h [1, 3]?
Answer: 1.38 ± 0.07 %ID/g

Question: And the tissue uptake at 3 h [1, 3]?
Answer: 2.85 ± 2.25 %ID/g

Question: And the tissue uptake at 24 h [1, 3]?
Answer: 0.12 ± 0.01 %ID/g

Question: And the tissue uptake at 1 h ([1]; spleen, read-out: Spleen)?
Answer: 0.7 ± 0.13 %ID/g

Question: What about the tissue uptake at 3 h ([1]; spleen, read-out: Spleen) of the same compound?
Answer: 0.35 ± 0.12 %ID/g

Question: What about the tissue uptake at 24 h ([1]; spleen, read-out: Spleen) of the same compound?
Answer: 0.24 ± 0.03 %ID/g

Question: What about the tissue uptake at 1 h ([1]; tumor, read-out: Tumor) of the same compound?
Answer: 19.1 ± 3.31 %ID/g

Question: What about the tissue uptake at 3 h ([1]; tumor, read-out: Tumor) of the same compound?
Answer: 16.2 ± 1.76 %ID/g

Question: And the tissue uptake at 24 h ([1]; tumor, read-out: Tumor)?
Answer: 8.65 ± 0.7 %ID/g

Question: What about the tissue to tissue ratio at 1 h [1, 4] of the same compound?
Answer: 36.1

Question: And the tissue to tissue ratio at 3 h [1, 4]?
Answer: 540

Question: What about the tissue to tissue ratio at 24 h [1, 4] of the same compound?
Answer: 865

Question: What about the tissue to tissue ratio at 1 h [1, 5] of the same compound?
Answer: 1.41

Question: And the tissue to tissue ratio at 3 h [1, 5]?
Answer: 1.94

Question: What about the tissue to tissue ratio at 24 h [1, 5] of the same compound?
Answer: 1.55

Question: And the tissue to tissue ratio at 1 h [1, 6]?
Answer: 43.5

Question: And the tissue to tissue ratio at 3 h [1, 6]?
Answer: 85.3

Question: What about the tissue to tissue ratio at 24 h [1, 6] of the same compound?
Answer: 61.8

Question: And the tissue to tissue ratio at 1 h [1, 7]?
Answer: 3.78

Question: And the tissue to tissue ratio at 3 h [1, 7]?
Answer: 14.9

Question: What about the tissue to tissue ratio at 24 h [1, 7] of the same compound?
Answer: 6.22

Question: And the tissue to tissue ratio at 1 h [1, 8]?
Answer: 76.6

Question: What about the tissue to tissue ratio at 3 h [1, 8] of the same compound?
Answer: 324

Question: And the tissue to tissue ratio at 24 h [1, 8]?
Answer: 288
